Values quoted from earlier work, collected in article PMC7763558.

Tests used:
Test in all cases: SPR
[1] = target: BPTI (unfolded client) (Bos taurus) (UniProt P00974)
[2] = target: BPTI (native client) (Bos taurus) (UniProt P00974)
[3] = target: BPTI (partially folded client) (Bos taurus) (UniProt P00974)

Question: Which Kd [1] does the source give for PDI (from UniProt P07237) here?
Answer: 3 µM

Question: And the Kd [2]?
Answer: 394 µM

Question: And the Kd [3]?
Answer: 14 µM
